Data from publication doi:10.1101/2023.02.21.529469.

Target: T1, His-Lmo2795 (RpiR family regulator) (UniProt Q8Y3P0)
T1 sequence: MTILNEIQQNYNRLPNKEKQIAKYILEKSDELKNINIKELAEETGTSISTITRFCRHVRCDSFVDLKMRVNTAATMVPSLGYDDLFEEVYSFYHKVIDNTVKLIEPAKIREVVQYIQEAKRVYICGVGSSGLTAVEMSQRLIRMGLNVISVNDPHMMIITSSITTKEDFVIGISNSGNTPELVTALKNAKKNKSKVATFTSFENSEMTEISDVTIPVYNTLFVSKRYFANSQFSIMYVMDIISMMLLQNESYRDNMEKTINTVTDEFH
Test: EMSA

## CGGAACACCCAACAAATTACCAATCGAATAAACTAACAAAGTCCTTTCAAGCGAAAGGACTTTTTATTTTTAACAGCAACGTCATTTTTTAAAGCTAGTTTCCGCAACTATCCACGCTAAAACATGAAAATCATTTTCATTTAATTGATATTGATAAAATCATTTTCTTATGATATAGTCTGTTTGAAAACGCATACTTTACACTGAAACACAGTATAGAGGAGGAGTATCAGTGGGCAATTCTGTTATGGAAAAAATCAAAGGTGGGTTAG (double strand) [lmo2795-nanE upstream (promoter) fragment]
  binding: binds
